Patent US20210205365A1, “Chimeric Growth Factor Receptors” (Instil Bio (UK) Ltd., priority 2018, published 2021)

B1: TpoR.CD40: SEQ ID NO: 9; TpoR fused to CD40 cytoplasmic domain (protein)
chain: MPSWALFMVTSCLLLAPQNLAQVSSQDVSLLASDSEPLKCFSRTFEDLTCFWDEEEAAPSGTYQLLYAYPREKPRACPLSSQSMPHFGTRYVCQFPDQEEVRLFFPLHLWVKNVFLNQTRTQRVLFVDSVGLPAPPSIIKAMGGSQPGELQISWEEPAPEISDFLRYELRYGPRDPKNSTGPTVIQLIATETCCPALQRPHSASALDQSPCAQPTMPWQDGPKQTSPSREASALTAEGGSCLISGLQPGNSYWLQLRSEPDGISLGGSWGSWSLPVTVDLPGDAVALGLQCFTLDLKNVTCQWQQQDHASSQGFFYHSRARCCPRDRYPIWENCEEEEKTNPGLQTPQFSRCHFKSRNDSIIHILVEVTTAPGTVHSYLGSPFWIHQAVRLPTPNLHWREISSGHLELEWQHPSSWAAQETCYQLRYTGEGHQDWKVLEPPLGARGGTLELRPRSRYRLQLRARLNGPTYQGPWSSWSDPTRVETATETAWISLVTALHLVLGLSAVLGLLLLRWQFPAHYRRLRHALWPSLPDLHRVLGQYLRDTAALSPPKATVSDTCEEVEPSLLEILPKSSERTPLPLCSSQAQMDYRRLQPSCLGTMPLSVCPPMAESGSCCTTHIANHSYLPLSYWQQPKKVAKKPTNKAPHPKQEPQEINFPDDLPGSNTAAPVQETLHGCQPVTQEDGKESRISVQERQ
modifications: TpoR-CD40; MISC_FEATURE (1)..(491): TpoR Extracellular Domain; MISC_FEATURE (492)..(513): TpoR Transmembrane Domain; MISC_FEATURE (514)..(635): TpoR Cytoplasmic Domain; MISC_FEATURE (636)..(697): CD40 Cytoplasmic Domain
B2: TpoR.IL2rγ: SEQ ID NO: 6; TpoR fused to IL2rγ cytoplasmic domain (protein)
chain: MPSWALFMVTSCLLLAPQNLAQVSSQDVSLLASDSEPLKCFSRTFEDLTCFWDEEEAAPSGTYQLLYAYPREKPRACPLSSQSMPHFGTRYVCQFPDQEEVRLFFPLHLWVKNVFLNQTRTQRVLFVDSVGLPAPPSIIKAMGGSQPGELQISWEEPAPEISDFLRYELRYGPRDPKNSTGPTVIQLIATETCCPALQRPHSASALDQSPCAQPTMPWQDGPKQTSPSREASALTAEGGSCLISGLQPGNSYWLQLRSEPDGISLGGSWGSWSLPVTVDLPGDAVALGLQCFTLDLKNVTCQWQQQDHASSQGFFYHSRARCCPRDRYPIWENCEEEEKTNPGLQTPQFSRCHFKSRNDSIIHILVEVTTAPGTVHSYLGSPFWIHQAVRLPTPNLHWREISSGHLELEWQHPSSWAAQETCYQLRYTGEGHQDWKVLEPPLGARGGTLELRPRSRYRLQLRARLNGPTYQGPWSSWSDPTRVETATETAWISLVTALHLVLGLSAVLGLLLLRWQFPAHYRRLRHALWPSLPDLHRVLGQYLRDTAALSPPKATVSDTCEEVEPSLLEILPKSSERTPLPLCSSQAQMDYRRLQPSCLGTMPLSVCPPMAESGSCCTTHIANHSYLPLSYWQQPERTMPRIPTLKNLEDLVTEYHGNFSAWSGVSKGLAESLQPDYSERLCLVSEIPPKGGALGEGPGASPCNQHSPYWAPPCYTLKPET
modifications: TpoR.IL2rgamma; MISC_FEATURE (1)..(491): TpoR Extracellular Domain; MISC_FEATURE (492)..(513): TpoR Transmembrane Domain; MISC_FEATURE (514)..(635): TpoR Cytoplasmic Domain; MISC_FEATURE (636)..(721): IL2r-gamma Cytoplasmic Domain

Tests used:
primary human T-cells [1] = experiment: Eltrombopag and IL-2 on CrGFR transduced primary human T-cells, up to 21 days; assay type: cell-based; conditions: after 21 days, x3 donors, Eltrombopag
Method: FIGS. 6A-6B—Analysis of Eltrombopag and IL-2 on primary human T-cells from Donor 1. Primary human T-cells from donor 1 were transduced with the WT TpoR or variant CrGFR and incubated in the presence of IL2 or Eltrombopag. Cells were removed at time points up to 21 days and the proportion of cells expressing the receptor assessed using PE conjugated anti-CD110 antibodies and a MACSQuant analyser.
FIGS. 7A-7B—Analysis of Eltrombopag and IL-2 on primary human T-cells from Donor 2. Primary human T-cells from donor 2 were transduced with the WT TpoR or variant CrGFR and incubated in the presence of IL2 or Eltrombopag. Cells were removed at time points up to 21 days and the proportion of cells expressing the receptor assessed using PE conjugated anti-CD110 antibodies and a MACSQuant analyser.
FIGS. 8A-8B—Analysis of Eltrombopag and IL-2 on primary human T-cells from Donor 3. Primary human T-cells from donor 3 were transduced with the WT TpoR or variant CrGFR and incubated in the presence of IL2 or Eltrombopag. Cells were removed at time points up to 21 days and the proportion of cells expressing the receptor assessed using PE conjugated anti-CD110 antibodies and a MACSQuant analyser.
FIGS. 9A-9B—Selection of optimal CrGFRs for next round of analysis. Flow cytometry plots showing expression of CrGFRs in ×3 donor primary human T-cells after 21 days incubation in Eltrombopag. The receptors TpoR.CD40, TpoR.IL2rγ, TpoR.ITAM1, TpoR.A60, TpoR.LMP1-cyto and TpoR.TpoR-cyto.LMP1-cyto were chosen for future comparison with the wt TpoR.
Peripheral blood mononuclear cells were isolated from normal healthy donors before activation for 24 hours with T-cell activation and expansion beads (Invitrogen) according to the manufacturer's instructions before addition of lentiviral supernatants.
Following expansion cells were washed excessively to remove any exogenous IL2 and plated into 96-well U-bottom plates. Cells were supplemented with IL2 (Proleukin) or Eltrombopag (Stratech Scientific, Suffolk, UK). At various time points thereafter cells were either stained with a 1:400 dilution of eFlor-450 fixable viability dye (eBioscience, UK) and counted directly from the wells using a MACSQuant Cytometer, or were stained with DRAQ7 viability dye plus phycoerythrin conjugated anti-CD110 antibodies (Miltenyi Biotec, UK) and analysed using a MACSQuant cytomter. Cell viability and/or transduction level was then analysed using MACSQuantify software (Miltenyi Biotec, UK).
Next Applicants took these receptors and expressed them in primary human T-cells and exposed these cells to IL-2 or Eltrombopag. Three donor primary human T-cell populations were isolated from buffy coats and transduced with the indicated lentiviral constructs in the presence of CD3/CD28 Dynabeads. Following expansion the cells were incubated with IL-2 or Eltrombopag. Applicants saw an increase in expansion/survival of T-cells with some of the receptors in some of the donors. […] This narrowed Applicants' panel of receptors to analyse further to: TpoR.CD40, TpOR.IL2rγ, TpoR.ITAM1, TpOR.LMP1-cyt, and TpoR.TpoR-cyt-LMP1-cyt.

primary human T-cells [2] = experiment: Eltrombopag and IL-2 on CrGFR sorted (CD110+) primary human T-cells, up to 7 days; assay type: cell-based; conditions: for expansion of CrGFR cells above that with media alone: second donor (FIG. 12)
Method: FIG. 10—Analysis of Eltrombopag and IL-2 on CrGFR sorted primary human T-cells from Donor 4. Primary human T-cells from donor 4 were transduced with the WT TpoR or variant CrGFR, and enriched for expression by Miltenyi MACS technology selected for and incubated in the presence of IL2 or Eltrombopag. Cells were removed at time points up to 7 days and the number of cells expressing the receptor assessed using PE conjugated anti-CD110 antibodies, DRAQ7 viability dye and a MACSQuant analyser.
FIG. 11—Analysis of Eltrombopag and IL-2 on CrGFR sorted primary human T-cells from Donor 5. Primary human T-cells from donor 5 were transduced with the WT TpoR or variant CrGFR, and enriched for expression by Miltenyi MACS technology selected for and incubated in the presence of IL2 or Eltrombopag. Cells were removed at time points up to 7 days and the number of cells expressing the receptor assessed using PE conjugated anti-CD110 antibodies, DRAQ7 viability dye and a MACSQuant analyser.
FIG. 12—Analysis of Eltrombopag and IL-2 on CrGFR sorted primary human T-cells from Donor 6. Primary human T-cells from donor 6 were transduced with the WT TpoR or variant CrGFR, and enriched for expression by Miltenyi MACS technology selected for and incubated in the presence of IL2 or Eltrombopag. Cells were removed at time points up to 7 days and the number of cells expressing the receptor assessed using PE conjugated anti-CD110 antibodies, DRAQ7 viability dye and a MACSQuant analyser.
Paramagnetic bead sorts were conducted as per the manufacturers' instructions using either anti-PE microbeads (Miltenyi Biotec or StemCell Technologies), or T-cell isolation beads (17951: StemCell Technologies).
Next Applicants repeated the experiment but sorted the CrGFR+ cells using CD110+ selection by paramagnetic bead selection using the receptors identified from the first round of selections (FIGS. 10, 11 and 12). Applicants observed enhanced survival of T-cells engrafted with the majority of the CrGFR in all three donors. In particular Applicants saw expansion of WT-TpoR, TpOR.CD40, TpOR.IL2rγ and TpoR.LMP1-cyto cells in the second donor (FIG. 12) above that with media alone.

[3] = test system: Tumour Infiltrating Lymphocytes from TIL042; experiment: CrGFR in TIL042 mixed with patient matched tumour cells; assay type: cell-based, human
Method: (§1) FIG. 13—Analysis of Chimeric recombinant Growth Factor Receptors in TIL042. Tumour Infiltrating Lymphocytes from TIL042 were transduced with the WT TpoR or indicated variant CrGFR and incubated in the presence of patient matched tumour lines with the addition of IL2, Eltrombopag, IL-2+Eltrombopag, or no growth factors. Cells were analysed and counted at days 4 and 7 and the number of cells expressing the receptor assessed using PE conjugated anti-CD110 antibodies, DRAQ7 viability dye and a MACSQuant analyser. Graphs show counts between days 4 and 7 when recovery of TIL occurs after an initial contraction in numbers driven by tumour regulatory factors and/or activation induced cell death.
Applicants next assessed the ability of these receptors to promote survival/expansion in a model of adoptive cell therapy by engineering tumour infiltrating lymphocytes. TIL from patient TIL042 (Uveal melanoma) were engineered with the variant or wt CrGFR and mixed with patient matched tumour cells (CTUM42.1). On days 4 and 7 counts were made of the total cells as well as the CD110+ cells. Applicants found an initial decline in cell numbers, probably driven by AICD or intrinsic inhibitory factors. However between days 4 and 7 Applicants observed an increase in the numbers of CD110+ cells with all the receptors tested with Eltrombopag or Eltrombopag+low dose IL-2.

ovarian TIL = experiment: CrGFR in ovarian TIL mixed with patient matched tumour cells; assay type: cell-based, human; conditions: all three donors
Method: as §1, with “14—Analysis” for “13—Analysis”, “Ovarian TIL.” for “TIL042.”, “×3 ovarian TIL” for “TIL042”, “cells” for “lines”, “either Eltrombopag” for “the addition of IL2, Eltrombopag, IL-2+Eltrombopag,”
Applicants evaluated further the effect of the CrGFR in ovarian TIL. Three ovarian TIL populations were engineered to express either the WT, or TpoR.CD40, TpoR.IL2rγ or TpoR.LMP1-Cyt variant receptors and mixed with patient matched tumour cells in the presence or absence of Eltrombopag. Counts of total and CD110+ cells were made after 4 and 7 days. Applicants observed specific expansion of the CrGFR+ cells in the presence of tumour between days 4 and 7 in donors 2 and 3 with all the receptors except the TpOR.LMP1.cyt.

phospho-STAT5 = experiment: Induction of pSTAT5 in CrGFR expressing T-cells; assay type: cell-based, human; conditions: T-cells transduced with wt TpoR, TpoR.CD40 or TpoR.IL2rγ
Method: FIG. 15—Induction of pSTAT by chimeric recombinant growth factor receptors. Primary human T-cells were isolated and transduced with the indicated CrGFR. Cells were enriched for CrGFR expression using Miltenyi MACS technology and expanded via polyclonal stimulation. The enriched cells were stimulated for 4 h with either media alone (RPMI), IL2, IL12, Tpo or Eltrombopag (Elt) before methanol fixation and intracellular staining with antibodies towards phospho-STAT5.
Finally, Applicants validated the signalling potential of the novel CrGFR by conducting phospho STAT analysis upon treatment of CrGFR expressing T-cells with media, cytokine or drug. To this end T-cells from 4 donors were transduced with either the wt TpoR, TpoR. CD40 or TpoR.IL2rγ, enriched for CrGFR expression using paramagnetic bead selection protocols and then expanded using polyclonal stimulation. The cells were treated for four hours with media alone (RPMI), IL-2, Tpo or Eltrombopag (Elt) before methanol fixation, permeabilization and analysis using pSTAT specific antibodies. STAT molecules are the key drivers of cell signalling upon cytokine activation of cells, pSTAT5 in particular is key to IL-2 activity.

Row | Molecule | proportion of viable cells with a distinct population of CD110+ cells (primary human T-cells [1]) | activity in primary human T-cells (primary human T-cells [2]; conclusion) | expansion of CrGFR cells above that with media alone (primary human T-cells [2]) | non-specific enrichment in IL2 alone ([3]; TIL042 with patient matched tumour cells) | Eltrombopag mediated survival/expansion of TIL ([3]; conclusion) | activity compared with the WT receptor (ovarian TIL) | STAT5 activation of the CrGFR when stimulated with Eltrombopag (phospho-STAT5)
1 | B1 | good proportion of viable cells with a distinct population of CD110+ cells | optimal activity | expansion | no non-specific enrichment | very specific | superior to that of the WT receptor | –
2 | B2 | good proportion of viable cells with a distinct population of CD110+ cells | – | expansion | – | – | superior to that of the WT receptor | clear activation of the correct STAT5 activation pathway
